Results reported in patent US20230399394A1 (SUNSHINE GUOJIAN PHARMACEUTICAL SHANGHAI, published 2023).

Assays:
Human IL-33-his = target: T1, Human IL-33-his (human, UniProt O95760 112-270, biotinylated with EZ-Link NHS-Biotin where used as IL-33-his-biotin); test: indirect ELISA, biotinylated IL-33-his on streptavidin plate
T1 construct: Used plain (SPR, cell assays) and biotinylated (ELISA); also called IL-33-his-biotin
T1 sequence: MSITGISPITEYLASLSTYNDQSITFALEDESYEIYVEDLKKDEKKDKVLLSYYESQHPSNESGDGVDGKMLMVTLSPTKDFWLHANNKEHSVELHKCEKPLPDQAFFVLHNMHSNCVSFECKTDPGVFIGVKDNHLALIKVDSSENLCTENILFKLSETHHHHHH
Description: The binding ability of murine antibody to human IL-33 protein was determined by indirect enzyme-linked immunosorbent assay (ELISA). The specific methods were as follows: The plate was pre-coated with biotin-avidin (SA) which was diluted in coating solution (50 mM carbonate coating buffer, pH 9.6) to 2 μg/ml at 4° C. overnight, then the plate was blocked with 5% skim milk powder at 37° C. for 2 hours and stored at −80° C. for later use. Biotinylated recombinant human IL-33-his protein was diluted to 0.5 μg/ml in coating solution (50 mM carbonate coating buffer, pH 9.6) and was added at 100 μl/well to the pre-coated SA plate, 37° C., 0.5 h. After washing the plate with PBST for 3 times, the antibodies to be tested were diluted by gradient with 1% BSA buffer and added into the blocked plate at 100 μl/well, and incubated at 37° C. for 1 hour. The plate was washed with PBST for 3 times, and the HRP-labeled goat anti-mouse IgG was added and placed at 37° C. for 30 min. After washing the plate with PBST for 3 times, the plate was patted on the absorbent paper to remove residual droplets as far as possible. […] OD values were read at 450 nm on the microplate reader to analyze the binding ability of the antibodies to be tested to the target antigen human IL-33-his.

Pep9 = target: T2, Pep9 (human, N-terminal biotin); test: ELISA, biotinylated peptide on streptavidin plate, antibody 10 µg/mL, well 2
T2 construct: Synthetic 20-mer of human IL-33
T2 peptide: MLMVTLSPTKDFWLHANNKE
Description: (§1) To determine the binding activity of antibody to each polypeptide fragment, the ELISA plate was pre-coated by biotin-avidin (SA) which was diluted in coating solution (50 mM carbonate coating buffer, pH 9.6) to 2 μg/ml at 4° C. overnight. The plate was washed with PBST for 3 times, and then blocked with 2% BSA prepared in PBS at room temperature for 2 h with 200 μL/well. The plate was washed once with PBST, and 864F3 and 874F7 with final concentrations of 10 μg/mL were added at 100 μL/well, respectively, and the plate was incubated at room temperature for 1 h. The plate was washed with PBST for 3 times, and the goat anti-mouse IgG labeled by HRP was added and placed at 37° C. for 30 min. After washing the plate with PBST for 3 times, the plate was patted on the absorbent paper to remove residual droplets as far as possible. 100 μl TMB developing solution was added to each well, and the plate was placed at room temperature (20±5° C.) for 5 minutes away from light; 50 μl 2M H₂SO₄ terminating solution was added to each well to terminate the substrate reaction. OD values were read at 450 nm on the microplate reader to analyze the binding ability of the antibody to each polypeptide fragment. The experimental results are shown in […]

Pep14 = target: T3, Pep14 (human, N-terminal biotin); test: as above
T3 construct: Synthetic 20-mer of human IL-33
T3 peptide: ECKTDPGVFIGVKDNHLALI
Description: as §1

Pep6 = target: T4, Pep6 (human, N-terminal biotin); test: as above
T4 construct: Synthetic 20-mer of human IL-33
T4 peptide: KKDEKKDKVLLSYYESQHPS
Description: as §1

Pep11 = target: T5, Pep11 (human, N-terminal biotin); test: as above
T5 construct: Synthetic 20-mer of human IL-33
T5 peptide: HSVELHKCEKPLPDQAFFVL
Description: as §1

Pep5 = target: T6, Pep5 (human, N-terminal biotin); test: as above
T6 construct: Synthetic 20-mer of human IL-33
T6 peptide: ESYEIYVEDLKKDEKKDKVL
Description: as §1

Pep3 = target: T7, Pep3 (human, N-terminal biotin); test: as above
T7 construct: Synthetic 20-mer of human IL-33
T7 peptide: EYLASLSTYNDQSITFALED
Description: as §1

Pep4 = target: T8, Pep4 (human, N-terminal biotin); test: as above
T8 construct: Synthetic 20-mer of human IL-33
T8 peptide: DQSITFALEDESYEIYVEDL
Description: as §1

Pep15 = target: T9, Pep15 (human, N-terminal biotin); test: as above
T9 construct: Synthetic 20-mer of human IL-33
T9 peptide: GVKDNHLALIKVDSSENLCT
Description: as §1

Pep10 = target: T10, Pep10 (human, N-terminal biotin); test: as above
T10 construct: Synthetic 20-mer of human IL-33
T10 peptide: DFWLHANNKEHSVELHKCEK
Description: as §1

Pep12 = target: T11, Pep12 (human, N-terminal biotin); test: as above
T11 construct: Synthetic 20-mer of human IL-33
T11 peptide: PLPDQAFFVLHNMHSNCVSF
Description: as §1

Pep7 = target: T12, Pep7 (human, N-terminal biotin); test: as above
T12 construct: Synthetic 20-mer of human IL-33
T12 peptide: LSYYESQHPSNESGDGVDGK
Description: as §1

Pep13 = target: T13, Pep13 (human, N-terminal biotin); test: as above
T13 construct: Synthetic 20-mer of human IL-33
T13 peptide: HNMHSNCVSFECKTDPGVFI
Description: as §1

Pep2 = target: T14, Pep2 (human, N-terminal biotin); test: as above
T14 construct: Synthetic 20-mer of human IL-33
T14 peptide: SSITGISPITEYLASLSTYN
Description: as §1

Pep1 = target: T15, Pep1 (human, N-terminal biotin); test: as above
T15 construct: Synthetic 20-mer of human IL-33
T15 peptide: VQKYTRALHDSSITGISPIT
Description: as §1

Pep8 = target: T16, Pep8 (human, N-terminal biotin); test: as above
T16 construct: Synthetic 20-mer of human IL-33
T16 peptide: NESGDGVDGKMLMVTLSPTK
Description: as §1

Pep16 = target: T17, Pep16 (human, N-terminal biotin); test: as above
T17 construct: Synthetic 20-mer of human IL-33
T17 peptide: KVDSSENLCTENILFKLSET
Description: as §1

- EC50 (Human IL-33-his): 110 pM
- OD450 (Pep9): 0.061 OD450
- OD450 (Pep14): 0.053 OD450
- OD450 (Pep6): 1.03 OD450
- OD450 (Pep11): 0.053 OD450
- OD450 (Pep5): 0.049 OD450
- OD450 (Pep3): 0.048 OD450
- OD450 (Pep4): 0.048 OD450
- OD450 (Pep15): 0.052 OD450
- OD450 (Pep10): 0.052 OD450
- OD450 (Pep12): 0.053 OD450
- OD450 (Pep7): 0.051 OD450
- OD450 (Pep13): 0.053 OD450
- OD450 (Pep2): 0.05 OD450
- OD450 (Pep1): 0.061 OD450
- OD450 (Pep8): 0.047 OD450
- OD450 (Pep16): 0.049 OD450
B1: 874F7 (antibody, V domains shown)
VH: QVQLKESGPGLVAPSHSLSITCNVSGFSLSKYGVHWIRQIPGRGLDWLGVLRAGGSTGYNSALMSRLSISKDSSKSQVFLKMNDLRTDDTAVYFCVRDHYYYSSYGGFVYWGQGTLVTVSA
VL: DIQMTQSPASQSASLGESVTITCLASQTIGAWLAWYRQQPGKSPQLLIYAATRLADGVPSRFSGSGSGTEFSFKINNLQAEDFVSYYCQQLDSSPYTFGGGTRLEM
notes: Murine hybridoma antibody purified on Protein G; also called murine antibody 874F7
